Here are results for 7 molecules from patent US20210079056A1 (Bayer, published 2021).

The target in this assay is T1, human NPRA (human, UniProt P16066 33-1061).
T1 sequence (looked up): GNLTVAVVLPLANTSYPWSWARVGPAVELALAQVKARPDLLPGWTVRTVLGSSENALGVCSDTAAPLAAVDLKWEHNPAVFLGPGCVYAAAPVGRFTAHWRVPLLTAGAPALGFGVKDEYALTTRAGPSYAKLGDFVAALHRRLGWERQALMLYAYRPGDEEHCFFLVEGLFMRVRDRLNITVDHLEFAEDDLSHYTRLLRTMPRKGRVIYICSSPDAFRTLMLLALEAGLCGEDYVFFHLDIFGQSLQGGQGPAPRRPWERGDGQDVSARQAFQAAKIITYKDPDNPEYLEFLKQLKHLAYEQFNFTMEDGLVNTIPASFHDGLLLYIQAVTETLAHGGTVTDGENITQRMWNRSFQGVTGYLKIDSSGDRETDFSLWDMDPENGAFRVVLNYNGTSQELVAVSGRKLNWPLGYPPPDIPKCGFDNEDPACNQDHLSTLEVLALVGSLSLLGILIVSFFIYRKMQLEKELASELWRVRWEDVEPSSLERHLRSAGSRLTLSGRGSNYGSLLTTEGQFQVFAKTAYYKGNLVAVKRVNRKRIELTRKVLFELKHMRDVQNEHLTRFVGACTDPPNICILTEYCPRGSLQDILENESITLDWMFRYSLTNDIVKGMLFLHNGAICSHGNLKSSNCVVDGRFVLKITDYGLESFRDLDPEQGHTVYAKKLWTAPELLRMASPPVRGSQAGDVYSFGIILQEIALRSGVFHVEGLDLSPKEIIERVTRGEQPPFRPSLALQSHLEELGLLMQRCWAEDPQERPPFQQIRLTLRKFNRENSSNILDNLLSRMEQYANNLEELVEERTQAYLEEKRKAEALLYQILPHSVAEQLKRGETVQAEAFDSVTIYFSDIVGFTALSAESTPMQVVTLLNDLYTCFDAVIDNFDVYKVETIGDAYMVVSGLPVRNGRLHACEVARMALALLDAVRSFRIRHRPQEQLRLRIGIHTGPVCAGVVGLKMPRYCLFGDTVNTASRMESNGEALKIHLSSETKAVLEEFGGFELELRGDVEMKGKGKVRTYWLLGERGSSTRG
Nature of the assay: cell-based or functional assay.

Values joined by “and” are separate entries in the source; they are usually repeats but may differ in a detail not shown here. Identical values can stand only once.

B1: TPP-13061 (antibody, human IgG1, lambda)
heavy: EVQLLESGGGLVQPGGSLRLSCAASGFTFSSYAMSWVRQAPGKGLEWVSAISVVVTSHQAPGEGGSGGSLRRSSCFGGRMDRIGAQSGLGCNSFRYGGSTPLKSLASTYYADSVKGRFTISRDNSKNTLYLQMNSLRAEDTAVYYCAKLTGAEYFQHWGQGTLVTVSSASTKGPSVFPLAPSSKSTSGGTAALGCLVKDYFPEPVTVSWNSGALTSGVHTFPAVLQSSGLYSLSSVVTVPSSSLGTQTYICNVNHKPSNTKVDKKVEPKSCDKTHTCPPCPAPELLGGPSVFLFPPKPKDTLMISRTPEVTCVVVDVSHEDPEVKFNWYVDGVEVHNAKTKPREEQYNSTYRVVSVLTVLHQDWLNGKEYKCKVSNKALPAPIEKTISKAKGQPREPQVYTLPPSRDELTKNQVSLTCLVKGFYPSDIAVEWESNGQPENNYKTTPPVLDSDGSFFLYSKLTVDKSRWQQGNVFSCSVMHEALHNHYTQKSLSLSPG
light: QSVLTQPPSVSGAPGQRVTISCTGSSSNIGAGYDVHWYQQLPGTAPKLLIYGNSNRPSGVPDRFSGSKSGTSASLAITGLQAEDEADYYCQSYDSSLSGVVFGGGTKLTVLGQPKAAPSVTLFPPSSEELQANKATLVCLISDFYPGAVTVAWKADSSPVKAGVETTTPSKQSNNKYAASSYLSLTPEQWKSHRSYSCQVTHEGSTVEKTVAPTECS
Regarding B1, the “average rel logEC50” value is -0.7; the “rel. logEC50* pcs” value was -0.6 and -0.8.

B2: TPP-10283 (antibody, human IgG1, lambda)
heavy: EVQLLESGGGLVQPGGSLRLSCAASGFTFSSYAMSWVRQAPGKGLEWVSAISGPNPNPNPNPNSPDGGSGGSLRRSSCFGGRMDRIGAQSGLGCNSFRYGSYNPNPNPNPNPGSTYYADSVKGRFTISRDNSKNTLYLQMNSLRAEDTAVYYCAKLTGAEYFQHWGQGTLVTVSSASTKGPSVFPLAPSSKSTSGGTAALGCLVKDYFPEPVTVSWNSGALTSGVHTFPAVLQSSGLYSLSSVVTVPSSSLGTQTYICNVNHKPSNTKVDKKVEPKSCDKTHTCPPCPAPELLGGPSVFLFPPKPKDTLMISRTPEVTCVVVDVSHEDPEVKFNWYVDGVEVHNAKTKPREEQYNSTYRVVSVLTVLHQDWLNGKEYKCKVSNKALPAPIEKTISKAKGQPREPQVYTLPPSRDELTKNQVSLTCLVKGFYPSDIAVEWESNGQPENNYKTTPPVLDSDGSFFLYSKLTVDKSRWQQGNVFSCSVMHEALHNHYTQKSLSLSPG
light: QSVLTQPPSVSGAPGQRVTISCTGSSSNIGAGYDVHWYQQLPGTAPKLLIYGNSNRPSGVPDRFSGSKSGTSASLAITGLQAEDEADYYCQSYDSSLSGVVFGGGTKLTVLGQPKAAPSVTLFPPSSEELQANKATLVCLISDFYPGAVTVAWKADSSPVKAGVETTTPSKQSNNKYAASSYLSLTPEQWKSHRSYSCQVTHEGSTVEKTVAPTECS
B2: the “rel. logEC50 pcs 5” value is -0.8.

B3: TPP-10765 (antibody, human IgG1, lambda)
heavy: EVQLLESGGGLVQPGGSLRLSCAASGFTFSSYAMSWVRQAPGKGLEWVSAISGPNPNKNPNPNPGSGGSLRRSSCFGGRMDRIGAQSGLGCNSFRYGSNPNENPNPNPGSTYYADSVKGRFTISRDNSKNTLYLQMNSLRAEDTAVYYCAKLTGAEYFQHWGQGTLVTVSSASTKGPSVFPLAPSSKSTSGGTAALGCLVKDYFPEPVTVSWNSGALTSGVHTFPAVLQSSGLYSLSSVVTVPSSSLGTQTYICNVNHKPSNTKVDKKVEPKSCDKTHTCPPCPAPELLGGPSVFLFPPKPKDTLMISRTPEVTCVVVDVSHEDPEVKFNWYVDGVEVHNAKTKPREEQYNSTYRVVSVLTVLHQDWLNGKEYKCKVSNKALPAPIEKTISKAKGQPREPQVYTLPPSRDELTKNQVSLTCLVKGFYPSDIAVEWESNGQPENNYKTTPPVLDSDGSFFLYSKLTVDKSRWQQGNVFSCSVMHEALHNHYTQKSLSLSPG
light: QSVLTQPPSVSGAPGQRVTISCTGSSSNIGAGYDVHWYQQLPGTAPKLLIYGNSNRPSGVPDRFSGSKSGTSASLAITGLQAEDEADYYCQSYDSSLSGVVFGGGTKLTVLGQPKAAPSVTLFPPSSEELQANKATLVCLISDFYPGAVTVAWKADSSPVKAGVETTTPSKQSNNKYAASSYLSLTPEQWKSHRSYSCQVTHEGSTVEKTVAPTECS
With B3, the “average rel logEC50” value was -0.4, the “rel. logEC50 pcs 5” value is -0.9, the “rel. logEC50 pcs 6” value was -0.4 and the “rel. logEC50 pcs 7” value worked out at 0.2.

B4: TPP-10847 (antibody, human IgG1, lambda)
heavy: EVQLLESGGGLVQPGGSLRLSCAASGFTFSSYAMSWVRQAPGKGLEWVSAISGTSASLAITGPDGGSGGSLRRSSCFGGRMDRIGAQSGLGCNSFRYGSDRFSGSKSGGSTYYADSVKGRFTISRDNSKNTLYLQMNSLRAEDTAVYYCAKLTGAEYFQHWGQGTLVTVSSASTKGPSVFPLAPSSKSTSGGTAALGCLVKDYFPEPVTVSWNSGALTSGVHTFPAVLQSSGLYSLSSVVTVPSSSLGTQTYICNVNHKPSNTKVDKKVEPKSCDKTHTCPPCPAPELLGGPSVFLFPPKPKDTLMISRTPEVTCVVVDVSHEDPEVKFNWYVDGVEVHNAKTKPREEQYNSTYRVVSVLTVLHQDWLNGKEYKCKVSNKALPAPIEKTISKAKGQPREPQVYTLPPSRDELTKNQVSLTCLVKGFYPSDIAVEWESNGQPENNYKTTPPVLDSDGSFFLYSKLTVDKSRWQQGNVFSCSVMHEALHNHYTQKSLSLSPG
light: QSVLTQPPSVSGAPGQRVTISCTGSSSNIGAGYDVHWYQQLPGTAPKLLIYGNSNRPSGVPDRFSGSKSGTSASLAITGLQAEDEADYYCQSYDSSLSGVVFGGGTKLTVLGQPKAAPSVTLFPPSSEELQANKATLVCLISDFYPGAVTVAWKADSSPVKAGVETTTPSKQSNNKYAASSYLSLTPEQWKSHRSYSCQVTHEGSTVEKTVAPTECS
As for B4, the “average rel logEC50” value was -0.5, the “rel. logEC50 pcs 5” value was 0 and the “rel. logEC50 pcs 6” value was -0.9.

B5: TPP-10845 (antibody, human IgG1, lambda)
heavy: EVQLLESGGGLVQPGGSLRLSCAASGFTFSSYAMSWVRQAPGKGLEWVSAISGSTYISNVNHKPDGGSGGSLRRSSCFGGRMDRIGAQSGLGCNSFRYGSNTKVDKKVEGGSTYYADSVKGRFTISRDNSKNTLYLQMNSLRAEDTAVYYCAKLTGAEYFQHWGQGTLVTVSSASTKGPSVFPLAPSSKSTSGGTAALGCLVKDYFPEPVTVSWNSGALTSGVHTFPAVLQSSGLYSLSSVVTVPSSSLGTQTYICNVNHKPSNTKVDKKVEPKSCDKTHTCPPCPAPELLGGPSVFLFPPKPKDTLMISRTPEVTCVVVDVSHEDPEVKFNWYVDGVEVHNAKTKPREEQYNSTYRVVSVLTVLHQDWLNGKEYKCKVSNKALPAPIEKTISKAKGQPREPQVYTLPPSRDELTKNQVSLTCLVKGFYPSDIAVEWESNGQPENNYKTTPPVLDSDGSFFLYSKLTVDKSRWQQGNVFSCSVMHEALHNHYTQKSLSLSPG
light: QSVLTQPPSVSGAPGQRVTISCTGSSSNIGAGYDVHWYQQLPGTAPKLLIYGNSNRPSGVPDRFSGSKSGTSASLAITGLQAEDEADYYCQSYDSSLSGVVFGGGTKLTVLGQPKAAPSVTLFPPSSEELQANKATLVCLISDFYPGAVTVAWKADSSPVKAGVETTTPSKQSNNKYAASSYLSLTPEQWKSHRSYSCQVTHEGSTVEKTVAPTECS
Consider B5, for which the “average rel logEC50” value is -0.6, the “rel. logEC50 pcs 5” value was -0.4 and the “rel. logEC50 pcs 6” value was -0.8.

B6: TPP-10274 (antibody)
heavy: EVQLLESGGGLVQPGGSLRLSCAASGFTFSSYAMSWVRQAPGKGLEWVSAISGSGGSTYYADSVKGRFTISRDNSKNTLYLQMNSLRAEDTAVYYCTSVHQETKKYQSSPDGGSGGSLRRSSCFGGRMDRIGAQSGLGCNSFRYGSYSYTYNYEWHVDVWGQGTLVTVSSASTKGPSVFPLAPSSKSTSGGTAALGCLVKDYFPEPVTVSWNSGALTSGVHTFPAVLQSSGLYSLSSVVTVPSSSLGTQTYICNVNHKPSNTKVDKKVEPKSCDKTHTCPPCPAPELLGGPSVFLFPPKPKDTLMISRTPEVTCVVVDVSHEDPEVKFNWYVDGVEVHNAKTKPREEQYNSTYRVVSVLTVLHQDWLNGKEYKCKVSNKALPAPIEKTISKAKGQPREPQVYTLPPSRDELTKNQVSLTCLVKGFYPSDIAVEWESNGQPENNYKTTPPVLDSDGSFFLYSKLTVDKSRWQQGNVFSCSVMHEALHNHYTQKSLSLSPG
light: QSVLTQPPSVSGAPGQRVTISCTGSSSNIGAGYDVHWYQQLPGTAPKLLIYGNSNRPSGVPDRFSGSKSGTSASLAITGLQAEDEADYYCQSYDSSLSGVVFGGGTKLTVLGQPKAAPSVTLFPPSSEELQANKATLVCLISDFYPGAVTVAWKADSSPVKAGVETTTPSKQSNNKYAASSYLSLTPEQWKSHRSYSCQVTHEGSTVEKTVAPTECS
Take B6: the “average rel logEC50” value is -0.1, the “rel. logEC50 pcs 2” value was -0.3, the “rel. logEC50 pcs 3” value was -0.2 and the “rel. logEC50 pcs 7” value was 0.

B7: TPP-10282 (antibody, human IgG1, lambda)
heavy: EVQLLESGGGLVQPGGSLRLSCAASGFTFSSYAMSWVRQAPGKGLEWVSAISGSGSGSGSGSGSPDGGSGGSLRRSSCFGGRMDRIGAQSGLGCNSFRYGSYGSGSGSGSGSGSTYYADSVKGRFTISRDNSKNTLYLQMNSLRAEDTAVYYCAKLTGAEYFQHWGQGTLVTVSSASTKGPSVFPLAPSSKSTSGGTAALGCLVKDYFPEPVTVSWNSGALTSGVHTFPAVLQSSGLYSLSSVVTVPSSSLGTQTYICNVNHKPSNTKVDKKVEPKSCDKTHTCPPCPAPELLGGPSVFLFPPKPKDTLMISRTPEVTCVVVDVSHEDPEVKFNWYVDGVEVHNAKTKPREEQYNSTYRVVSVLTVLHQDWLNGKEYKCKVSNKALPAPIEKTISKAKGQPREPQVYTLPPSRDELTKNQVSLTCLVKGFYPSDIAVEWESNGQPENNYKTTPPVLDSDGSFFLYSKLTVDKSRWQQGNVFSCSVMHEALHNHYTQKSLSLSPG
light: QSVLTQPPSVSGAPGQRVTISCTGSSSNIGAGYDVHWYQQLPGTAPKLLIYGNSNRPSGVPDRFSGSKSGTSASLAITGLQAEDEADYYCQSYDSSLSGVVFGGGTKLTVLGQPKAAPSVTLFPPSSEELQANKATLVCLISDFYPGAVTVAWKADSSPVKAGVETTTPSKQSNNKYAASSYLSLTPEQWKSHRSYSCQVTHEGSTVEKTVAPTECS
With B7, the “average rel logEC50” value is 0.1, the “rel. logEC50 pcs 1” value amounted to 0.3, the “rel. logEC50 pcs 2” value was -0.2 and the “rel. logEC50 pcs 4” value was found to be 0.1. Moreover, the “rel. logEC50 pcs 5” value is 0.2.
